Results from the supplement of paper PMC10567573.

B1: CCDC6 (parent)
chain: TLFKKIQALQKEKETLAVNYEKEE
B2: PRPH (parent)
chain: DEIEFLKKLHEEELRDLQVSVESQ

Variants of: B1
Assay: protein stability index of a GFP-peptide fusion (GPS, HEK-293T) (PSI 1-6); higher = more stable
Settings: c terminus: a fixed tail appended
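Note: lentivirally expressed fusions sorted by FACS into six bins by GFP to DsRed ratio, PSI derived from sequencing read proportions per bin multiplied by bin number.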

Protein stability index of substitutions, site by site:
A8: M 2.69, I 3.4, W 2.75, G 3.72, K 3.88, T 3.49, N 3.75, D 3.51, Q 3.23
K4: A 3.01, W 2.74, M 2.8, S 3.82, Y 2.58, V 3.52, P 4.83
E24: P 2.53, S 2.77, F 2.04, N 2.7, C 3.06, Y 2.02, H 2.39, Q 2.84, R 2.1, T 2.82, W 1.91
K13: C 2.28, W 1.91, S 3.23, R 3.49, G 3.73, Q 3.13
Y20: E 4.32, T 3.62, K 3.68, S 3.84, I 2.96, R 3.53, Q 4.34, N 3.57, A 3.54, C 3.32
K22: W 2.48, H 3.15, F 2.57, L 2.89, Q 3.3, P 3.5, T 2.68
E12: A 2.66, N 3.09, I 2.27, M 2.49, P 3.66, W 1.81, L 1.97, G 3.05, K 2.59, R 2.75, H 2.63, Y 2.11
F3: M 3.41, I 3.51, L 3.08, Q 4.78, S 4.62, Y 3.67, C 3.62, D 5.28, V 3.76
E14: V 2.6, I 2.25, P 2.64, A 2.6, K 2.94, D 3.25, Y 2.05, Q 3.11, M 2.27, F 2.16, S 2.46, C 2.89
T15: H 2.76, Q 2.98, S 2.91, L 2.54, P 3.56, W 1.92, K 3.3, G 3.25, R 2.88, Y 3.08, F 2.06, M 2.85, I 3.98, A 2.97, V 3.42
Q7: K 3.31, G 3.51, L 2.71, S 3.65, T 3.54, A 2.85, E 3.57, H 3.18, N 4.02, F 2.3, R 2.98
L2: E 5.56, D 5.26, K 5.2, P 5.29, G 5.25, N 5.26, A 4.08, M 4.28, C 4.55, S 4.83, I 3.4, Y 3.74, T 5.1
V18: T 3.02, R 2.66, Y 2.53, F 2.58, H 3.62, L 3.79, I 3.04, N 3.63, A 2.95
E21: P 2.72, C 2.53, H 2.84, V 2.52, A 2.26, G 3.01, I 1.97
N19: L 2.41, K 2.69, S 2.99, Y 2.33, T 3.34, G 3.25, M 2.65, V 2.58
K11: M 2.78, Q 3.21, D 3.79, H 3.28, E 3.69, P 4.1, V 2.81, R 2.59, C 3.12, A 3.23, W 2.28, G 3.71
I6: F 3.99, M 4.32, L 3.59, E 5.39, N 4.36, H 4.17, G 5.06, V 3.85, S 4.81, R 4.79, Y 3.93
E23: A 2.68, M 2.7, L 2.19, D 3.32, F 1.99, P 2.25, V 2.27, S 2.89, G 2.58, C 2.34, Y 2.76
Q10: V 2.91, R 2.64, I 2.35, P 3.99, C 3.17, Y 2.64, A 3.17, S 3.41, E 4.41, H 3.3, N 2.89
A17: R 2.76, W 2.16, Y 2.46, L 2.51, F 2.49, S 2.71, M 2.75, N 2.65, T 3.18, E 3.56
K5: N 3.78
L16: H 3.91, T 3.49, N 3.6, S 4.02
T1: K 3.06, A 3.85, E 3.67, Y 3.01, V 3.12, M 2.51, L 2.38, G 3.73
L9: F 3.46, E 4.37, T 4.6, A 3.92, D 4.67, P 5.08, Q 4.48, S 4.05, H 3.88, G 3.92, Y 3.23, M 2.74, V 4.22, C 4.33

Variants of: B2
Assay: as above
Settings: c terminus: a fixed tail appended

Protein stability index: each site, then its substitutions
S23: V 4.59, M 3.96, W 3.45, G 5.13, R 4.62, T 4.95, E 4.67, D 5.04, I 3.8, Q 4.11, P 4.71, N 5.04, Y 4.71, K 4.5, H 4.94, A 4.04, F 4.36, C 4.55, L 4.54
S20: H 4.91, Q 4.86, G 4.29, C 5.06, F 3.97, A 4.78, T 4.87, M 4.81, I 4.27, P 4.96, W 4.45, D 4.54, L 4.2, N 4.83, Y 4.45, R 5.1, E 5.75, K 4.75, V 4.88
E22: D 4.99, A 4.47, Q 4.37, R 4.3, T 4.72, Y 3.75, N 4.48, K 4.69, H 4.5, S 4.74, M 4.27, F 3.38, P 5.25, W 3.29, C 4.93, L 3.88, V 4.18, G 4.3, I 3.29
V21: E 5.81, M 4.45, D 5.43, N 5.29, A 5.45, Q 4.39, I 4.13, L 4.71, S 4.75, K 5.06, P 4.95, F 4.43, Y 4.07, W 4.36, G 4.92, H 5.09, R 4.39, C 4.98, T 4.96
Q24: P 3.96, W 3.85, E 4.57, Y 3.64, I 4.35, T 4.76, L 4.66, F 3.91, V 4.23, G 4.48, D 4.46, S 4.26, N 4.92, R 4.22, A 4.57, M 4.64, H 4.52, K 4.65, C 3.37
V19: W 5.12, Q 5.01, P 4.93, N 4.87, T 5.19, R 5.06, Y 4.56, S 4.6, M 4.76, L 4.85, K 5
